In data set [1] the target is recombinant VWF (full-length, multimeric rVWF), P04275.
The target in data set [2] is T1, FRETS-VWF73 substrate, P04275.
T1 chain: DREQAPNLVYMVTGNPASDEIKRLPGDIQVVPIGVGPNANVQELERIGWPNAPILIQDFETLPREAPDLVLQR

For data set [3], the target named is von Willebrand factor (VWF), substrate of the in vitro cleavage of Table 1, P04275.

B1: Q97 ADAMTS13 (wildtype recombinant ADAMTS13) (protein)
chain: AAGGILHLELLVAVGPDVFQAHQEDTERYVLTNLNIGAELLRDPSLGAQFRVHLVKMVILTEPEGAPNITANLTSSLLSVCGWSQTINPEDDTDPGHADLVLYITRFDLELPDGNRQVRGVTQLGGACSPTWSCLITEDTGFDLGVTIAHEIGHSFGLEHDGAPGSGCGPSGHVMASDGAAPRAGLAWSPCSRRQLLSLLSAGRARCVWDPPRPQPGSAGHPPDAQPGLYYSANEQCRVAFGPKAVACTFAREHLDMCQALSCHTDPLDQSSCSRLLVPLLDGTECGVEKWCSKGRCRSLVELTPIAAVHGRWSSWGPRSPCSRSCGGGVVTRRRQCNNPRPAFGGRACVGADLQAEMCNTQACEKTQLEFMSQQCARTDGQPLRSSPGGASFYHWGAAVPHSQGDALCRHMCRAIGESFIMKRGDSFLDGTRCMPSGPREDGTLSLCVSGSCRTFGCDGRMDSQQVWDRCQVCGGDNSTCSPRKGSFTAGRAREYVTFLTVTPNLTSVYIANHRPLFTHLAVRIGGRYVVAGKMSISPNTTYPSLLEDGRVEYRVALTEDRLPRLEEIRIWGPLQEDADIQVYRRYGEEYGNLTRPDITFTYFQPKPRQAWVWAAVRGPCSVSCGAGLRWVNYSCLDQARKELVETVQCQGSQQPPAWPEACVLEPCPPYWAVGDFGPCSASCGGGLRERPVRCVEAQGSLLKTLPPARCRAGAQQPAVALETCNPQPCPARWEVSEPSSCTSAGGAGLALENETCVPGADGLEAPVTEGPGSVDEKLPAPEPCVGMSCPPGWGHLDATSAGEKAPSPWGSIRTGAQAAHVWTPAAGSCSVSCGRGLMELRFLCMDSALRVPVQEELCGLASKPGSRREVCQAVPCPARWQYKLAACSVSCGRGVVRRILYCARAHGEDDGEEILLDTQCQGLPRPEPQEACSLEPCPPRWKVMSLGPCSASCGLGTARRSVACVQLDQGQDVEVDEAACAALVRPEASVPCLIADCTYRWHVGTWMECSVSCGDGIQRRRDTCLGPQAQAPVPADFCQHLPKPVTVRGCWAGPCVGQGTPSLVPHEEAAAPGRTTATPAGASLEWSQARGLLFSPAPQPRRLLPGPQENSVQSSACGRQHLEPTGTIDMRGPGQADCAVAIGRPLGEVVTLRVLESSLNCSAGDMLLLWGRLTWRKMCRKLLDMTFSSKTNTLVVRQRCGRPGGGVLLRYGSQLAPETFYRECDMQLFGPWGEIVSPSLSPATSNAGGCRLFINVAPHARIAIHALATNMGAGTEGANASYILIRDTHSLRTTAFHGQQVLYWESESSQAEMEFSEGFLKAQASLRGQYWTLQSWVPEMQDPQSWKGKEGT
Take B1: the “Degradation of full-length rVWF under denaturing conditions (VWF multimer analysis)” value in data set [1] is on record as “Comparable”. In data set [2], this protein registered a Specific rADAMTS13 activity (activity per total protein by UV) of 1750 IU/mg and a rADAMTS13 Activity (FRETS VWF73) of 2210 IU/mL.

B2: plasma derived ADAMTS13 (pdADAMTS13) (protein)
chain: B1 chain
Consider B2, for which, in data set [3], the IU VWF RCo/ml left; ADAMTS13 0.1 U/ml, 0 h (IU VWF RCo/ml) came to 0.75; the IU VWF RCo/ml left; ADAMTS13 0.1 U/ml, 15 seconds (IU VWF RCo/ml) stood at 0.38; the IU VWF RCo/ml left; ADAMTS13 0.1 U/ml, 30 seconds (IU VWF RCo/ml) is 0.37; the IU VWF RCo/ml left; ADAMTS13 0.1 U/ml, 1 minute (IU VWF RCo/ml) came to 0.21. In data set [3], the IU VWF RCo/ml left; ADAMTS13 0.1 U/ml, 2 minutes (IU VWF RCo/ml) is under 0.17; the IU VWF RCo/ml left; ADAMTS13 0.1 U/ml, 5 minutes (IU VWF RCo/ml) is under 0.17; the IU VWF RCo/ml left; ADAMTS13 0.5 U/ml, 0 h (IU VWF RCo/ml) turned out to be 0.78; the IU VWF RCo/ml left; ADAMTS13 0.5 U/ml, 15 seconds (IU VWF RCo/ml) was under 0.17. In data set [3], this protein showed an IU VWF RCo/ml left; ADAMTS13 0.5 U/ml, 30 seconds (IU VWF RCo/ml) of under 0.17; an IU VWF RCo/ml left; ADAMTS13 0.5 U/ml, 1 minute (IU VWF RCo/ml) of under 0.17; an IU VWF RCo/ml left; ADAMTS13 0.5 U/ml, 2 minutes (IU VWF RCo/ml) of under 0.17; an IU VWF RCo/ml left; ADAMTS13 0.5 U/ml, 5 minutes (IU VWF RCo/ml) of under 0.17. In data set [3], this protein displayed an IU VWF RCo/ml left; ADAMTS13 1.0 U/ml, 0 h (IU VWF RCo/ml) of 0.26; an IU VWF RCo/ml left; ADAMTS13 1.0 U/ml, 15 seconds (IU VWF RCo/ml) of under 0.17; an IU VWF RCo/ml left; ADAMTS13 1.0 U/ml, 30 seconds (IU VWF RCo/ml) of under 0.17; an IU VWF RCo/ml left; ADAMTS13 1.0 U/ml, 1 minute (IU VWF RCo/ml) of under 0.17. In data set [3], this protein had an IU VWF RCo/ml left; ADAMTS13 1.0 U/ml, 2 minutes (IU VWF RCo/ml) of under 0.17 and an IU VWF RCo/ml left; ADAMTS13 1.0 U/ml, 5 minutes (IU VWF RCo/ml) of under 0.17. Besides, the “specific activity (FRETS U/antigen U), compared with mixed rADAMTS13 batches” value in data set [2] was “the average specific activity of the mixed rADAMTS13 batches is comparable with the specific activity of pdADAMTS13”.

Values taken from US20230203469A1.
